Results taken from US20250236642A1 (NEC, published 2025).

How the values were obtained:
[1] = biological target: T1, HLA-A*24:02 molecule; assay: flow cytometry, C1R-A24 cells;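 note: Read-out was the amount of peptide–MHC complex on each cell, taken as the fluorescence intensity of a bound fluorescent antibody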
T1 construct: MHC class I molecule on C1R-A24 cells, endogenous peptide and b2m stripped at pH 3.3, purified b2m added back; also called product of an HLA-A*24:02 gene; allele A*24:02
Text: Thereafter, the number of MHC-peps for each C1R-A24 cell (proportional to a fluorescence intensity of the fluorescent antibody) was quantitatively measured using a fluorescence cell analyzer FACScan (Becton-Dickinson).

[2] = biological target: T2, HLA-A*02:01 molecule; assay: flow cytometry, T2 cells
T2 construct: MHC class I molecule on T2 cells (ATCC); also called product of an HLA-A*02:01 gene; allele A*02:01

log10 Kd (M) [1]	log Kd [2]	Binder
-3.35	–	LPFSPSQFL (synthetic 9-mer derived from c-Myb) [peptide of SEQ ID NO: 60]
-6.03	-5.69	HMAKVIEFL (synthetic 9-mer derived from EVC1) [peptide of SEQ ID NO: 38]
-6.18	-5.66	ALPKIRARV (synthetic 9-mer derived from EVC2) [peptide of SEQ ID NO: 12]
> -3	> -3	ARHSTIPLV (synthetic 9-mer derived from c-Myb) [peptide of SEQ ID NO: 77]
-5.31	-5.63	SLVLTWAAL (synthetic 9-mer derived from EVC2) [peptide of SEQ ID NO: 14]
-4.7	–	FIDSDSSSW (synthetic 9-mer derived from c-Myb) [peptide of SEQ ID NO: 57]
-8.27	–	TVLVPPRNL (synthetic 9-mer derived from CADM1) [peptide of SEQ ID NO: 48]
-5.41	–	VFGRVMQID (synthetic 9-mer derived from Wnt5a; also called A15) [peptide of SEQ ID NO: 66]
–	-4.08	ATGDCSSFI (synthetic 9-mer derived from c-Myb) [peptide of SEQ ID NO: 59]
> -3	> -3	THLDAGTVE (synthetic 9-mer derived from Casp-8) [peptide of SEQ ID NO: 75]
-6.64	-5.13	LLITRKSFI (synthetic 9-mer derived from Fas; also called A10) [peptide of SEQ ID NO: 16]
-4.76	–	LHITRKSFI (synthetic 9-mer derived from Fas) [peptide of SEQ ID NO: 63]
-4.82	–	LTITRKSFI (synthetic 9-mer derived from Fas) [peptide of SEQ ID NO: 45]
-5.46	-4.01	LVITRKSFI (synthetic 9-mer derived from Fas) [peptide of SEQ ID NO: 30]
-5.6	-4.11	LIITRKSFI (synthetic 9-mer derived from Fas) [peptide of SEQ ID NO: 29]
-6.01	-5.2	LMITRKSFI (synthetic 9-mer derived from Fas) [peptide of SEQ ID NO: 17]
-5.12	–	LAITRKSFI (synthetic 9-mer derived from Fas) [peptide of SEQ ID NO: 46]
-6.52	–	GYITCERPF (synthetic 9-mer derived from Helios) [peptide of SEQ ID NO: 65]
-6.23	-6.16	YVYDPPTTI (synthetic 9-mer derived from CADM1) [peptide of SEQ ID NO: 2]
-6.16	-6.23	YLYDPPTTI (synthetic 9-mer derived from CADM1) [peptide of SEQ ID NO: 4]
-5.51	-5.47	YTYDPPTTI (synthetic 9-mer derived from CADM1) [peptide of SEQ ID NO: 3]
> -3	> -3	SPDEFSNDF (synthetic 9-mer derived from Casp-8) [peptide of SEQ ID NO: 73]

log10 Kd (M) [1]	log Kd [2]	Binder
> -3	> -3	GILSDHQQS (synthetic 9-mer derived from Casp-8) [peptide of SEQ ID NO: 74]
> -3	> -3	ASPSHMTSM (synthetic 9-mer derived from Helios) [peptide of SEQ ID NO: 81]
-4.1	–	CDLSSFEFF (synthetic 9-mer derived from c-Myb) [peptide of SEQ ID NO: 58]
-5.84	–	SLLITRKSF (synthetic 9-mer derived from Fas) [peptide of SEQ ID NO: 62]
-5.35	–	SSLDPPKVL (synthetic 9-mer derived from c-Myb) [peptide of SEQ ID NO: 55]
-5.87	-6.66	CLDEHQWQL (synthetic 9-mer derived from EVC1) [peptide of SEQ ID NO: 9]
–	-5.04	CTDEHQWQL (synthetic 9-mer derived from EVC1) [peptide of SEQ ID NO: 39]
-3.48	-4.85	CIDEHQWQL (synthetic 9-mer derived from EVC1) [peptide of SEQ ID NO: 28]
> -3	> -3	IFADVSSST (synthetic 9-mer derived from c-Myb) [peptide of SEQ ID NO: 78]
-4.63	–	GRVMQIDGV (synthetic 9-mer derived from Wnt5a) [peptide of SEQ ID NO: 68]
-5.42	–	AYRTCWIFS (synthetic 9-mer derived from Casp-8) [peptide of SEQ ID NO: 49]
-6.88	-5.93	KFLEAFHEV (synthetic 9-mer derived from EVC1) [peptide of SEQ ID NO: 8]
> -3	> -3	LPPARHSTI (synthetic 9-mer derived from c-Myb) [peptide of SEQ ID NO: 76]
-4.96	-6.06	LLLFSAAAL (synthetic 9-mer derived from CADM1) [peptide of SEQ ID NO: 1]
-5.55	-4.71	VLLQQFQTA (synthetic 9-mer derived from EVC2) [peptide of SEQ ID NO: 15]
-7.14	-5.58	MLPQTPSHL (synthetic 9-mer derived from c-Myb) [peptide of SEQ ID NO: 24]
> -3	> -3	GYITLGKPH (synthetic 9-mer derived from Helios) [peptide of SEQ ID NO: 80]
-5.22	-4.92	LMEEHGATL (synthetic 9-mer derived from EVC2) [peptide of SEQ ID NO: 13]
> -3	> -3	LHEEHGATL (synthetic 9-mer derived from EVC2) [peptide of SEQ ID NO: 79]
–	-4.18	LVEEHGATL (synthetic 9-mer derived from EVC2) [peptide of SEQ ID NO: 43]
–	-4.09	LTEEHGATL (synthetic 9-mer derived from EVC2) [peptide of SEQ ID NO: 42]
–	-4.5	LIEEHGATL (synthetic 9-mer derived from EVC2) [peptide of SEQ ID NO: 40]

log10 Kd (M) [1]	log Kd [2]	Binder
–	-5.6	LLEEHGATL (synthetic 9-mer derived from EVC2) [peptide of SEQ ID NO: 41]
> -3	> -3	STGESAQTS (synthetic 9-mer derived from Casp-8) [peptide of SEQ ID NO: 71]
> -3	> -3	GSPDEFSND (synthetic 9-mer derived from Casp-8) [peptide of SEQ ID NO: 72]
-6.77	–	YFFTVIFSF (synthetic 9-mer derived from Fas) [peptide of SEQ ID NO: 44]
–	-5.11	VLPPARHST (synthetic 9-mer derived from c-Myb) [peptide of SEQ ID NO: 54]
-6.4	-6.11	ALRPAPALL (synthetic 9-mer derived from EVC1) [peptide of SEQ ID NO: 26]
-6.1	-5.08	VMSHHGEKL (synthetic 9-mer derived from Helios; also called A13) [peptide of SEQ ID NO: 19]
-6.22	-5.24	LLNPNRQTI (synthetic 9-mer derived from CADM1) [peptide of SEQ ID NO: 23]
-5	–	ISAYRTCWI (synthetic 9-mer derived from Casp-8) [peptide of SEQ ID NO: 34]
-5.75	-6.02	AQAPPTAQL (synthetic 9-mer derived from c-Myb) [peptide of SEQ ID NO: 5]
-5.33	-6.58	ALAPPTAQL (synthetic 9-mer derived from c-Myb) [peptide of SEQ ID NO: 6]
-4.54	-5	ATAPPTAQL (synthetic 9-mer derived from c-Myb) [peptide of SEQ ID NO: 25]
-4.16	–	HMTSSERPF (synthetic 9-mer derived from Helios) [peptide of SEQ ID NO: 64]
> -3	> -3	ILSDHQQSQ (synthetic 9-mer derived from Casp-8) [peptide of SEQ ID NO: 70]
-5.54	–	CMIVHQGTI (synthetic 9-mer derived from c-Myb) [peptide of SEQ ID NO: 36]
-7	–	SLPFSPSQF (synthetic 9-mer derived from c-Myb) [peptide of SEQ ID NO: 56]
-5.54	–	EAIDGYITL (synthetic 9-mer; also called H1) [peptide of SEQ ID NO: 47]
-5.2	-5.56	ATLAPAVLL (synthetic 9-mer derived from EVC1) [peptide of SEQ ID NO: 10]
4.81	-5.15	AVLAPAVLL (synthetic 9-mer derived from EVC1) [peptide of SEQ ID NO: 27]
–	-6.49	SSFEFFEEA (synthetic 9-mer derived from c-Myb) [peptide of SEQ ID NO: 37]
–	-3.9	FSNDFGQSL (synthetic 9-mer derived from Casp-8) [peptide of SEQ ID NO: 35]
> -3	> -3	SLPNEKQTS (synthetic 9-mer derived from Casp-8) [peptide of SEQ ID NO: 69]
